Results reported in patent US10457718B2, “Compounds for the treatment of cancer” (Rheinisch-Westfaelische Technische Hochschule Aachen, priority 2015, dated 2019).

What was measured:
[1] = tested on: MDA-MB231 breast cancer cells; assay: short-term cell number WST assay / XTT proliferation assay of small peptides; format: cell-based, human; conditions: 300 ng/ml
From the text: FIG. 6 presents diagrams showing the tumor suppressive impact of small peptides derived from ITIH5 on aggressive MDA-MB231 breast cancer cells. Growth inhibition mediated by chemically synthesized ITIH5-derived peptides using a short-term cell number WST assay.
These small protein fragments can be further optimized (stabilization, modification) to obtain suitable candidates for novel anti-tumor drugs. Use of biological drugs in targeted cancer therapy is a strongly growing area in cancer care.

[2] = tested on: BT20 breast cancer cell line; assay: colony formation assay; format: cell-based, human
Protocol: (§1) Various functional readout systems were available to determine the tumor suppressive impact of 1-681_ITIH5 treatment in vitro: A) Cell number assay: Numbers of living cells were quantified after four days of culturing using the CASY cell counter and analyzer (Roche Diagnostics, Mannheim, Germany). B) XTT proliferation assay: the cell proliferation KIT (XTT) was used according to the manufacturer's recommendations (Roche). C) Colony formation assay: 1×10^3 cells were seeded into six-well plates. After 14 days of culturing grown colonies were fixed with 3.5% formaldehyde/80% methanol and stained with 0.1% crystal violet. D) Wound healing assay: a confluent monolayer was scratched with a pipette tip. Afterwards cell migration within the wounded area was analyzed by using a light microscope over three days.

[3] = tested on: T47D breast cancer cell line; assay: colony formation assay; format: cell-based, human
Protocol: as §1

[4] = tested on: MDA-MB231 breast cancer cells; assay: short-term cell number assay (CASY cell counter); format: cell-based, human; conditions: for inhibition of tumor cell growth: dose dependent, maximal effect
Protocol: as §1
as §1, with “Highly purified peptides were used for functional in vitro validation. Various” for “Various”, “ITIH5 protein subfragments” for “1-681_ITIH5 treatment”, “B)” for “B) XTT proliferation assay: the cell proliferation KIT (XTT) was used according to the manufacturer's recommendations (Roche). C)”, “violet. C) In order to ensure specificity of observed effects of the ITIH5 subfragments a LDH Cytotoxicity Detection Kit (Roche) was performed according to the manufacturer's recommendations.” for “violet.”

[5] = tested on: MDA-MB231 endogenously ITIH5 positive cells; assay: colony formation assay in ITIH5-expressing single cell clones; format: cell-based, human; conditions: MDA-MB231 clones stably expressing ITIH5
Protocol: as §1
(§2) In order to ensure specificity of observed effects of 1-681_ITIH5, a LDH Cytotoxicity Detection assay (Roche) was performed according to the manufacturer's recommendations. Furthermore MDA-MB231 single cell clones were generated which stably express ITIH5 protein under a strong CMV promoter. These endogenous ITIH5-positive clones are optimal control cells, i.e. those ITIH5-positive cells should not show further sensitivity against 1-681_ITIH5 in growth inhibitory experiments.

[6] = tested on: MDA-MB231 breast cancer cells; assay: scratch wound healing assay (cell migration); format: cell-based, human; conditions: over 3 days
Protocol: as §1
(§3) Highly purified peptides were used for functional in vitro validation. Various functional readout systems were available to determine the tumor suppressive impact of ITIH5 protein subfragments in vitro: A) Cell number assay: Numbers of living cells were quantified after four days of culturing using the CASY cell counter and analyzer (Roche Diagnostics, Mannheim, Germany). B) Colony formation assay: 1×10^3 cells were seeded into six-well plates. […] Afterwards cell migration within the wounded area was analyzed by using a light microscope over three days.

[7] = stability in supernatant of treated cancer cells (western blot); format: in vitro ADME; conditions: 1 μg/ml added to supernatant of MDA-MB231 cells; western blotting
Protocol: FIG. 2 is a diagram showing the performance of the recombinant 1-681_ITIH5 in vitro. A) Persisting stability of 1-681_ITIH5 over 48 h in vitro. 1 μg/ml of 1-681_ITIH5 was added to the supernatant of MDA-MB231 breast cancer cells. To the given time points 1 ml of the supernatant was harvested and non-degraded 1-681_ITIH5 was isolated and analyzed by western blotting (as shown). B) LDH cytotoxicity assay.
Before applying 1-681_ITIH5 in vitro both the stability and the purity were tested by using a western blot analysis.

[8] = tested on: MDA-MB231 breast cancer cells; assay: LDH Cytotoxicity Detection assay; format: cell-based, human; conditions: after 72 h vs controls
Protocol: as §2
as §3, with “plates. After 14 days of culturing grown colonies were fixed with 3.5% formaldehyde/80% methanol and stained with 0.1% crystal violet. C) In order to ensure specificity of observed effects of the ITIH5 subfragments a LDH Cytotoxicity Detection Kit (Roche) was performed according to the manufacturer's recommendations.” for “plates.”

[9] = tested on: MDA-MB231 breast cancer cells; assay: long-term colony formation assay; format: cell-based, human; conditions: p<0.001
Protocol: as §1

[10] = tested on: SK-MES1 lung cancer cells; assay: XTT proliferation assay; format: cell-based, human; conditions: dose-dependent
Protocol: as §1

[11] = tested on: A549 lung cancer cells; assay: LDH Cytotoxicity Detection assay; format: cell-based, human; conditions: after 72 h vs controls
Protocol: as §1, with “Highly purified peptides were used for functional in vitro validation. Various” for “Various”, “ITIH5 protein subfragments” for “1-681_ITIH5 treatment”, “B)” for “B) XTT proliferation assay: the cell proliferation KIT (XTT) was used according to the manufacturer's recommendations (Roche). C)”, “violet. C) In order to ensure specificity of observed effects of the ITIH5 subfragments a LDH Cytotoxicity Detection Kit (Roche) was performed according to the manufacturer's recommendations.” for “violet.”

[12] = tested on: A549 lung cancer cells; assay: short-term cell number assay (CASY cell counter); format: cell-based, human; conditions: dose dependent, maximal effect
Protocol: as §1, with “Highly purified peptides were used for functional in vitro validation. Various” for “Various”, “ITIH5 protein subfragments” for “1-681_ITIH5 treatment”, “B)” for “B) XTT proliferation assay: the cell proliferation KIT (XTT) was used according to the manufacturer's recommendations (Roche). C)”, “violet. C) In order to ensure specificity of observed effects of the ITIH5 subfragments a LDH Cytotoxicity Detection Kit (Roche) was performed according to the manufacturer's recommendations.” for “violet.”

## #102: chemically synthesized peptide derived from the ITIH5 vWA domain (YFAPKDLPPLPKNVVFVLDS; isolated peptide)
[1]
  cancer cell growth, single peptides: significant impairment of cancer cell growth

## #111: chemically synthesized peptide derived from the ITIH5 vWA domain (KLRQTKDALFTILHDLRPQD; isolated peptide)
[1]
  cancer cell growth, single peptides: significant impairment of cancer cell growth

## #26: chemically synthesized peptide derived from the ITIH5 VIT-domain (SVKSTIISRYAFTTVSCRML; isolated peptide)
[1]
  cancer cell growth, single peptides: significant impairment of cancer cell growth

## #108: chemically synthesized peptide derived from the ITIH5 vWA domain (DSSASMVGTKLRQTKDALFT; isolated peptide)
[1]
  cancer cell growth, single peptides: significant impairment of cancer cell growth

## #98: chemically synthesized peptide derived from the ITIH5 vWA domain (GDIQVLNGYFVHYFAPKDLP; isolated peptide)
[1]
  cancer cell growth, single peptides: significant impairment of cancer cell growth

## #32: chemically synthesized peptide derived from the ITIH5 VIT-domain (MLNRASEDQDIEFQMQIPAA; isolated peptide)
[1]
  cancer cell growth, single peptides: significant impairment of cancer cell growth

B1: 1-681_ITIH5: recombinant isolated polypeptide, amino acids 1-681 of the full-length ITIH5 protein (942 amino acids) (protein)
chain: MLLLLGLCLGLSLCVGSQEEAQSWGHSSEQDGLRVPRQVRLLQRLKTKPLMTEFSVKSTIISRYAFTTVSCRMLNRASEDQDIEFQMQIPAAAFITNFTMLIGDKVYQGEITEREKKSGDRVKEKRNKTTEENGEKGTEIFRASAVIPSKDKAAFFLSYEELLQRRLGKYEHSISVRPQQLSGRLSVDVNILESAGIASLEVLPLHNSRQRGSGRGEDDSGPPPSTVINQNETFANIIFKPTVVQQARIAQNGILGDFIIRYDVNREQSIGDIQVLNGYFVHYFAPKDLPPLPKNVVFVLDSSASMVGTKLRQTKDALFTILHDLRPQDRFSIIGFSNRIKVWKDHLISVTPDSIRDGKVYIHHMSPTGGTDINGALQRAIRLLNKYVAHSGIGDRSVSLIVFLTDGKPTVGETHTLKILNNTREAARGQVCIFTIGIGNDVDFRLLEKLSLENCGLTRRVHEEEDAGSQLIGFYDEIRTPLLSDIRIDYPPSSVVQATKTLFPNYFNGSEIIIAGKLVDRKLDHLHVEVTASNSKKFIILKTDVPVRPQKAGKDVTGSPRPGGDGEGDPNHIERLWSYLTTKELLSSWLQSDDEPEKERLRQRAQALAVSYRFLTPFTSMKLRGPVPRMDGLEEAHGMSAAMGPEPVVQSVRGAGTQPGPLLKKPYQPRIKISKTSVDGD
modifications: polypeptide 1-681_ ITIH5
[2]
  colony growth: significantly reduced colony growth
[3]
  colony growth: significantly reduced colony growth
[4]; 100 ng/ml medium, repeated experiments
  Growth inhibition: up to 20%
[4]; 1 μg/ml medium, highly significant
  Growth inhibition: up to 50%
[5]
  growth inhibition in ITIH5-positive cells: not able to mediate growth inhibition
[6]
  tumor cell migration / cell motility: impairs furthermore tumor cell migration
[7]
  stability in the supernatant of treated cancer cells: ≥ 48 h
[8]
  unspecific cytotoxicity (LDH): no unspecific cytotoxicity
[9]
  colony growth after 14 days in culture (densitometrical evaluation): significantly impairs colony growth
[10]
  cell growth inhibition (XTT): strongly mediates cell growth inhibition

B2: 1-162_VIT: isolated recombinant polypeptide comprising only the VIT domain of ITIH5, amino acid 1 to 162 (protein)
chain: MLLLLGLCLGLSLCVGSQEEAQSWGHSSEQDGLRVPRQVRLLQRLKTKPLMTEFSVKSTIISRYAFTTVSCRMLNRASEDQDIEFQMQIPAAAFITNFTMLIGDKVYQGEITEREKKSGDRVKEKRNKTTEENGEKGTEIFRASAVIPSKDKAAFFLSYEE
modifications: VIT- domain of the inter-alpha-trypsin inhibitor heavy chain
[11]
  unspecific cytotoxicity (LDH): no unspecific cytotoxicity
[4]
  inhibition of tumor cell growth: up to 40%
[6]
  tumor cell migration / cell motility: clearly suppresses cell motility
[12]
  inhibition of tumor cell growth: up to 40%
[8]
  unspecific cytotoxicity (LDH): no unspecific cytotoxicity

B3: 213_vWA: isolated recombinant polypeptide comprising only the vWA domain of ITIH5, 213 amino acids (protein)
chain: GYFVHYFAPKDLPPLPKNVVFVLDSSASMVGTKLRQTKDALFTILHDLRPQDRFSIIGFSNRIKVWKDHLISVTPDSIRDGKVYIHHMSPTGGTDINGALQRAIRLLNKYVAHSGIGDRSVSLIVFLTDGKPTVGETHTLKILNNTREAARGQVCIFTIGIGNDVDFRLLEKLSLENCGLTRRVHEEEDAGSQLIGFYDEIRTPLLSDIRIDY
modifications: “vWA” domain of the inter-alpha-trypsin inhibitor heavy chain
[4]
  inhibition of tumor cell growth: up to 30%
